Data reported in patent US20220073618A1 (NANJING GENSCRIPT BIOTECH, published 2022).

Columns and labels:
human PD-L1 protein [1] = target: T1, human PD-L1 protein (human, UniProt Q9NZQ7 19-238, limits assumed); assay: ELISA on human PD-L1 protein; untreated antibody (D0) and antibody after 7 days at 40 C (D7)
Description: (§1) The antibody samples were treated separately at 40° C., and then centrifuged to remove the pellet. Then the amount of remaining antibody was evaluated by ELISA. (test after treatment at 40° C. for 7 days (D7) and 14 days (D14) separately; for each test, the untreated sample (D0) stored at −80° C. is used as a control) (FIG. 3)

human PD-L1 protein [2] = target: T1, human PD-L1 protein; assay: ELISA on the antigen (human PD-L1); antibody untreated (0), after oxidative stress (AAPH, 24 h) or deamidation stress (pH 9.0, 48 h)
human PD-L1 protein [3] = target: T1, human PD-L1 protein; assay: ELISA on human PD-L1 protein; antibody after 14 days at 40 C (D14)
Description: as §1

human PD-L1 protein [4] = target: T1, human PD-L1 protein; assay: ELISA on human PD-L1 protein; antibody treated for 20 min at 70 C
Description: (§2) The antibody samples were treated for 20 min at various temperature gradients respectively, and then centrifuged to remove the pellet. Then the amount of remaining antibody was evaluated by ELISA. (The temperature gradient includes: room temperature, 30° C., 40° C., 50° C., 60° C., 70° C., […]) (FIG. 4)

[5] = target: T2, human PD-L1 on cell surface (human, UniProt Q9NZQ7 19-290); assay: cell-based or functional assay
T2 sequence (Q9NZQ7 19-290): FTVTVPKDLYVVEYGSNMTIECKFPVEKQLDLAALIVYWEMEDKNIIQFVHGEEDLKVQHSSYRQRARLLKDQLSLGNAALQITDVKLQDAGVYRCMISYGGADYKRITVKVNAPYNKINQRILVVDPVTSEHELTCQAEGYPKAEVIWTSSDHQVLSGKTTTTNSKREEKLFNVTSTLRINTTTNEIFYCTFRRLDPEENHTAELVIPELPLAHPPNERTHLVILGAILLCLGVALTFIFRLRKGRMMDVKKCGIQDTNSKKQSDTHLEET

[6] = target: T3, PD-L1-HIS recombinant protein (human, UniProt Q9NZQ7 19-238, limits assumed); assay: SPR (Biacore 8K), antibody captured on chip, PD-L1-HIS analyte 2.5-80 nM, 1:1 binding model
T3 construct: not shown: His tag
T3 sequence (Q9NZQ7 19-238 limits assumed): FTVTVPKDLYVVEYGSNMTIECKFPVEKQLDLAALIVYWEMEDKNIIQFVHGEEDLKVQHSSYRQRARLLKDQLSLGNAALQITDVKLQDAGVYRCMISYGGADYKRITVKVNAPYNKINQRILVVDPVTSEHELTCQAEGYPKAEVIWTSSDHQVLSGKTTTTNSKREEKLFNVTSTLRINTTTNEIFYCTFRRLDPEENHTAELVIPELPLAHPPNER
Description: The chip surface was equilibrated with HBS-EP buffer at a flow rate of 10 μl/min for 5 min, and then a 1:1 mixture of “NHS+EDC” was injected at a flow rate of 10 μl/min for 420 sec to activate the chip. The capture antibody (goat anti-murine IgG) diluted in 10 mM sodium acetate buffer was injected for about 420 sec at a flow rate of 10 μl/min for coupling, and finally ethanolamine was injected for 420 sec at a flow rate of 10 μl/min to block the surface.
Three pre-cycles were performed with the HBS-EP buffer as a sample to balance the chip to stabilize the baseline. The antibody diluted in HBS-EP buffer was injected for 30 sec at a flow rate of 10 μl/min (where the antibody-antigen binding signal was controlled to about 100 RU by adjusting the capture time between 0-5 min), and then the chip was equilibrated with the buffer for 1 min. The low-concentration antigen 2.5 nM PD-L1-HIS was injected at a flow rate of 30 μl/min for 240/300 seconds, to allow the antigen to bind to the antibody, and then the buffer was injected at a flow rate of 30 μl/min for 720/600 seconds for dissociation. 50 mM HCl were injected three times each for 15 s at a flow rate of 100 μl/min for regeneration, to complete one cycle. The antigen concentration was changed (such as 5 nM PD-L1-HIS) to carry out the cycle for measurement at a next gradient concentration until all gradient concentrations (2.5 nM, 5 nM, 10 nM, 20 nM, 40 nM, 80 nM PD-L1-HIS) and the replicate (such as 10 nM PD-L1-HIS) were tested.
The experimental data was double subtracted (minus the background values of the control channel and zero concentration), and fitted to the “1:1 binding” model in the Biacore 8K evaluation software. Biacore 8K was used to determine the affinity of the antibody to the PD-L1-HIS recombinant protein.

human PD-L1 protein [7] = target: T1, human PD-L1 protein; assay: ELISA on human PD-L1 protein; antibody treated for 20 min (all overlapping curves, including the -80 C control)
Description: as §2

biotin-labeled PD-L1-Fc [8] = target: T4, biotin-labeled PD-L1-Fc (human, UniProt Q9NZQ7 19-238, limits assumed, biotin-labeled (sites not given)); assay: flow cytometry: biotin-PD-L1-Fc binding to CHO cells expressing human PD-1 with titrated antibody, fitted curve; enhancement
T4 construct: not shown: Fc part
T4 sequence (Q9NZQ7 19-238 limits assumed): as above
Description: (§3) In the FACS test, CHO cells expressing human PD-1 and parent cells as a negative control were washed 3 times with PBS. 2.5×10⁵ detection cells and 50 μl of 3-fold serial dilutions of purified antibody with an initial concentration of 300 nM were added to a 96-well plate. […] Then the cells were washed 3 times with PBS, 100 μl of iFluor647-labeled streptavidin (1 μg/ml) was added, and the cells were incubated at 4° C. for 45 min. Finally, the cells were washed 3 times with PBS, and the signal was read on FACS BD Calibur.

biotin-labeled PD-L1-Fc [9] = target: T4, biotin-labeled PD-L1-Fc; assay: ELISA: biotin-PD-L1-Fc binding to coated human PD-1 with titrated antibody, OD 450 nm, fitted curve; enhancement
Description: (§4) The ELISA plate (Nunc) was coated with 100 μl/well of 0.5 μg/ml recombinant human PD-1 protein in PBS at 4° C. overnight. The plate was washed with PBS-T (0.05% Tween), and blocked with 200 μl/well of PBST containing 1% BSA at 37° C. for 0.5 hr. Then the blocking buffer was discarded, and 50 μl of 10 μg/ml purified antibody to be tested was added to the first test well. 3-fold serial dilutions were made, and a total of 11 test concentration gradients were given. […] The plate was washed 3 times with PBST, and incubated with 100 μl/well of Streptavidin-HRP (SA-HRP, GenScript) at 37° C. for 10 min. Finally, the plate was washed 5 times with PBST, and then a TMB developing solution (GenScript) was added and incubated at room temperature for 15 min in the dark. The reaction was terminated by adding 50 μl of 1M HCl stop solution (Sigma). The plate was read at 450 nm on a microplate reader.

[10] = target: T5, monkey PD-L1 on cell surface (monkey); assay: flow cytometry on CHO cells expressing monkey PD-L1, fitted curve
T5 construct: whole, on cells; also called monkey PD-L1 cell line; CHO cells overexpressing monkey PD-L1
Description: (§5) CHO cells expressing human or monkey PD-L1 and parent cells as a negative control were washed 3 times with PBS. 2.5×10⁵ detection cells and 100 μl of 3-fold serial dilutions of purified antibody with an initial concentration of 300 nM were added to a 96-well plate and incubated at 4° C. for 1 hr. […] Finally, the cells were washed 3 times with PBS, and the signal was read on FACS BD Calibur.
Moreover, CHO cells overexpressing monkey PD-L1 were used to test the cross-recognition binding to monkey PD-L1 by the antibodies.

biotin-labeled PD-L1-Fc [11] = target: T4, biotin-labeled PD-L1-Fc; assay: ELISA: biotin-PD-L1-Fc binding to coated human PD-1 with titrated antibody; enhancement of PD-L1/PD-1 binding
Description: as §4

human PD-L1 protein [12] = target: T1, human PD-L1 protein; assay: ELISA on the antigen (human PD-L1); antibody untreated (0), after oxidative stress (AAPH, 24 h) or deamidation stress (pH 9.0, 48 h); remark: listed apart in the source
[13] = target: T2, human PD-L1 on cell surface; assay: flow cytometry on CHO cells expressing human PD-L1, fitted curve
Description: as §5

human PD-L1 protein [14] = target: T1, human PD-L1 protein; assay: ELISA on human PD-L1 protein; antibody kept at 40 C for 0 (D0), 7 (D7) or 14 (D14) days
Description: as §1

human PD-L1 protein [15] = target: T1, human PD-L1 protein; assay: ELISA on human PD-L1 protein; antibody treated for 20 min at room temperature to 70 C and -80 C control (curves not told apart)
Description: as §2

biotin-labeled PD-L1-Fc [16] = target: T4, biotin-labeled PD-L1-Fc; assay: flow cytometry: biotin-PD-L1-Fc binding to CHO cells expressing human PD-1 with titrated antibody; enhancement of PD-L1/PD-1 binding
Description: as §3

human PD-L1 protein [17] = target: T1, human PD-L1 protein; assay: ELISA on the antigen (human PD-L1); antibody untreated (0), after oxidative stress (AAPH, 24 h) or deamidation stress (pH 9.0, 48 h); curves not told apart

T1 sequence (Q9NZQ7 19-238 limits assumed): as above

Binder | EC50 (read off the curve) (human PD-L1 protein [1]) | EC50 (read off the curve) (human PD-L1 protein [3]) | Bottom (best-fit value) of IL-2 release, mixed lymphocyte reaction [5] | EC50 (µg/ml) of IL-2 release, mixed lymphocyte reaction [5] | LogEC50 (best-fit value) of IL-2 release, mixed lymphocyte reaction [5] | Span (best-fit value) of IL-2 release, mixed lymphocyte reaction [5] | Top (best-fit value) of IL-2 release, mixed lymphocyte reaction [5] | Kd [6] | koff [6] | kon [6] | EC50 (read off the curve) (human PD-L1 protein [15]) | further results
AH01950 (antibody, human IgG1, V domains shown, also called mPD-L1Ab-CBM clone AH01950) VH: QVQLQESGPGLVKPSQTLSLTCTVSGYSITSGYTWHWIRQHPGKGLEWIGYIHYSGSTKYNPSLKSRVTISRDTSKNQFSLKLSSVTAADTAVYYCARNSLFASWGQGTLVTVSS VL: DIVLTQSPDSLAVSLGERATINCRASESVDTYGDSFMHWFQQKPGQPPKLLIYRASNLESGVPDRFSGSGSGTDFTLTISSLQAEDVAVYYCQQSNEAPYTFGGGTKLEIK | ~0.01 µg/mL | ~0.02 µg/mL | 1140 | 0.0311 µg/mL | -1.51 | 950 | 2090 | 0.82 nM | 0.000152 s⁻¹ | 185000 M⁻¹ s⁻¹ |  | EC50 (read off the curve) (human PD-L1 protein [2]): ~0.01 µg/mL; EC50 (read off the curve) (human PD-L1 protein [4]): ~0.03 µg/mL; EC50 (read off the curve) (human PD-L1 protein [7]): ~0.01 µg/mL
AH01946 (antibody, human IgG1, V domains shown, also called mPD-L1Ab-CBM clone AH01946) VH: QVQLQESGPGLVKPSQTLSLTCTVSGYSITSGYTWHWIRQHPGKGLEWIGYIHYSGSTKYNPSLKSRVTISRDTSKNQFSLKLSSMTAADTAVYYCARNSLFASWGQGTLVTVSS VL: DIVLTQSPDSLAVSLGERATINCRASESVDTYGDSFMHWFQQKPGQPPKLLIYRASNLESGVPDRFSGSGSGTDFTLTISSVQAEDVAVYYCQQSNEAPYTFGGGTKLEIK |  |  | 1170 | 0.0295 µg/mL | -1.53 | 866 | 2030 | 0.835 nM | 0.000155 s⁻¹ | 186000 M⁻¹ s⁻¹ | ~0.01 µg/mL | LogEC50 (biotin-labeled PD-L1-Fc [8]): 1.45; LogEC50 (biotin-labeled PD-L1-Fc [9]): 1.34; EC50 [10]: 3.29 nM; LogEC50 [10]: 0.518; EC50 (biotin-labeled PD-L1-Fc [11]): 0.0219 µg/mL; EC50 (read off the curve) (human PD-L1 protein [12]): ~0.01 µg/mL; EC50 [13]: 0.501 nM; LogEC50 [13]: -0.3; EC50 (read off the curve) (human PD-L1 protein [14]): ~0.01 µg/mL; EC50 (biotin-labeled PD-L1-Fc [16]): 28.1 nM
AH01963 (antibody, human IgG1, V domains shown, also called mPD-L1Ab-CBM clone AH01963) VH: QVQLQESGPGLVKPSQTLSLTCTVSGYSITSGYTWHWIRQHPGKGLEWIGYIHYSGSTKYNPSLKSRVTISRDTSKNQFSLKLSSVTAADTAVYYCARNSLFASWGQGTLVTVSS VL: DIVLTQSPDSLAVSLGERATINCRASESVDTYGDSFMHWYQQKPGQPPKLLIYRASNLESGVPDRFSGSGSGTDFTLTISSVQAEDVAVYYCQQSNEAPYTFGGGTKLEIK | ~0.01 µg/mL | ~0.02 µg/mL | 1420 | 0.0406 µg/mL | -1.39 | 930 | 2350 | 1.27 nM | 0.000274 s⁻¹ | 216000 M⁻¹ s⁻¹ | ~0.01 µg/mL | EC50 (read off the curve) (human PD-L1 protein [17]): ~0.02 µg/mL
